From US20160272693A1 (ZEALAND PHARMA A S, published 2016)
One block for each binder: values may come before it. *1 amine or outer side, *2 acyl side, *3 side chain or, on linkers, in order; H or OH if unused. Bridges are numbered along the chain shown (N, C = ends). [ ]: non-standard residue; d: D form. The star is where a group is joined. Pro(trans-4-NH2) = O=C([C@@H]1C[C@@H](N[*:3])CN1[*:1])[*:2]; C20 diacid = O=C(O)CCCCCCCCCCCCCCCCCCC(=O)*; γGlu = O=C(O)[C@H](CCC(=O)[*:2])N[*:1]; Hyp = O=C(O)[C@@H]1C[C@@H](O)CN1; NMeI = CC[C@H](C)[C@H](NC)C(=O)O; Aad = N[C@@H](CCCC(=O)O)C(=O)O; Orn = NCCC[C@H](N)C(=O)O; Sar = CNCC(=O)O

Target: T1, human amylin receptor 3 (hAMYR3), hCTR2 co-expressed with human receptor activity modifying protein 3 (hRAMP3) (human, UniProt P30988 25-474; O60896 24-148)
T1 sequence (looked up) 1: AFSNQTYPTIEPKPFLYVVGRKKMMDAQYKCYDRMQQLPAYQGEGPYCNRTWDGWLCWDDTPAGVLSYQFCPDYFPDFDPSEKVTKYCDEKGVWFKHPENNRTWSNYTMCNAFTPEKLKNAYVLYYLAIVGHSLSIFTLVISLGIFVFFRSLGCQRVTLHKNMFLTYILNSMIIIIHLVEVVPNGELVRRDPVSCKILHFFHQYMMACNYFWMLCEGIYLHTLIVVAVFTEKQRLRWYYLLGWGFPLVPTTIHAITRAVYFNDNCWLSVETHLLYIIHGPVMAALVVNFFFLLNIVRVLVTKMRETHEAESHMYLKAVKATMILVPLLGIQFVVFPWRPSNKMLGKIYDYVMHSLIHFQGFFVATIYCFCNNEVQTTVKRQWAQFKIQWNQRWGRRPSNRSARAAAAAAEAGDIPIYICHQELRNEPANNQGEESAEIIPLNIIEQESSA
T1 sequence (looked up) 2: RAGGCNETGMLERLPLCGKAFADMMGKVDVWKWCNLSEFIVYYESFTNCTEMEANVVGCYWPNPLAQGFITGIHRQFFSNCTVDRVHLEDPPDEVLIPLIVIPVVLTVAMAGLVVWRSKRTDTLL
Test: cell-based or functional assay

B1: [19CD]-isoGlu-R-C( )-GTAT-C( )-ATERLAHFLTRSSF-Gly(Me)-A-Ile(Me)-LSSTEVGSST-Apr-NH2 (Compd. 45) (peptide)
peptide: {C20 diacid}-[γGlu]RCGTATCATERLAHFLTRSSF[Sar]A[NMeI]LSSTEVGSST[Pro(trans-4-NH2)]-NH2
modifications: disulfide 3-8
SMILES: CC[C@H](C)[C@@H](C(=O)N[C@@H](CC(C)C)C(=O)N[C@@H](CO)C(=O)N[C@@H](CO)C(=O)N[C@H](C(=O)N[C@@H](CCC(=O)O)C(=O)N[C@H](C(=O)NCC(=O)N[C@@H](CO)C(=O)N[C@@H](CO)C(=O)N[C@H](C(=O)N1C[C@H](N)C[C@H]1C(N)=O)[C@@H](C)O)C(C)C)[C@@H](C)O)N(C)C(=O)[C@H](C)NC(=O)CN(C)C(=O)[C@H](Cc1ccccc1)NC(=O)[C@H](CO)NC(=O)[C@H](CO)NC(=O)[C@H](CCCNC(=N)N)NC(=O)[C@@H](NC(=O)[C@H](CC(C)C)NC(=O)[C@H](Cc1ccccc1)NC(=O)[C@H](Cc1c[nH]cn1)NC(=O)[C@H](C)NC(=O)[C@H](CC(C)C)NC(=O)[C@H](CCCNC(=N)N)NC(=O)[C@H](CCC(=O)O)NC(=O)[C@@H](NC(=O)[C@H](C)NC(=O)[C@@H]1CSSC[C@H](NC(=O)[C@H](CCCNC(=N)N)NC(=O)CC[C@H](NC(=O)CCCCCCCCCCCCCCCCCCC(=O)O)C(=O)O)C(=O)NCC(=O)N[C@@H]([C@@H](C)O)C(=O)N[C@@H](C)C(=O)N[C@@H]([C@@H](C)O)C(=O)N1)[C@@H](C)O)[C@@H](C)O
- hAMYR3 EC50 (nM); cAMP induction: 0.31 nM

B3: [19CD]-isoGlu-R-C( )-GTAT-C( )-ATERLA-Aad-FLTRSSF-Gly(Me)-A-Ile(Me)-LSSTEVGS-Orn-T-Hyp-NH2 (Compd. 44) (peptide)
peptide: {C20 diacid}-[γGlu]RCGTATCATERLA[Aad]FLTRSSF[Sar]A[NMeI]LSSTEVGS[Orn]T[Hyp]-NH2
modifications: disulfide 3-8
SMILES: CC[C@H](C)[C@@H](C(=O)N[C@@H](CC(C)C)C(=O)N[C@@H](CO)C(=O)N[C@@H](CO)C(=O)N[C@H](C(=O)N[C@@H](CCC(=O)O)C(=O)N[C@H](C(=O)NCC(=O)N[C@@H](CO)C(=O)N[C@@H](CCCN)C(=O)N[C@H](C(=O)N1C[C@H](O)C[C@H]1C(N)=O)[C@@H](C)O)C(C)C)[C@@H](C)O)N(C)C(=O)[C@H](C)NC(=O)CN(C)C(=O)[C@H](Cc1ccccc1)NC(=O)[C@H](CO)NC(=O)[C@H](CO)NC(=O)[C@H](CCCNC(=N)N)NC(=O)[C@@H](NC(=O)[C@H](CC(C)C)NC(=O)[C@H](Cc1ccccc1)NC(=O)[C@H](CCCC(=O)O)NC(=O)[C@H](C)NC(=O)[C@H](CC(C)C)NC(=O)[C@H](CCCNC(=N)N)NC(=O)[C@H](CCC(=O)O)NC(=O)[C@@H](NC(=O)[C@H](C)NC(=O)[C@@H]1CSSC[C@H](NC(=O)[C@H](CCCNC(=N)N)NC(=O)CC[C@H](NC(=O)CCCCCCCCCCCCCCCCCCC(=O)O)C(=O)O)C(=O)NCC(=O)N[C@@H]([C@@H](C)O)C(=O)N[C@@H](C)C(=O)N[C@@H]([C@@H](C)O)C(=O)N1)[C@@H](C)O)[C@@H](C)O
- hAMYR3 EC50 (nM); cAMP induction: 0.3 nM

The remaining lines, values ahead:

- hAMYR3 EC50 (nM); cAMP induction: 0.15 nM
B2: [19CD]-isoGlu-R-C( )-NTAT-C( )-ATQRLADFLQRSSF-Gly(Me)-A-Ile(Me)-LSSTEVGSNT-Hyp-NH2 (Compd. 49) (peptide)
peptide: {C20 diacid-γGlu}-RCNTATCATQRLADFLQRSSF[Sar]A[NMeI]LSSTEVGSNT[Hyp]-NH2
modifications: disulfide 2-7
SMILES: CC[C@H](C)[C@@H](C(=O)N[C@@H](CC(C)C)C(=O)N[C@@H](CO)C(=O)N[C@@H](CO)C(=O)N[C@H](C(=O)N[C@@H](CCC(=O)O)C(=O)N[C@H](C(=O)NCC(=O)N[C@@H](CO)C(=O)N[C@@H](CC(N)=O)C(=O)N[C@H](C(=O)N1C[C@H](O)C[C@H]1C(N)=O)[C@@H](C)O)C(C)C)[C@@H](C)O)N(C)C(=O)[C@H](C)NC(=O)CN(C)C(=O)[C@H](Cc1ccccc1)NC(=O)[C@H](CO)NC(=O)[C@H](CO)NC(=O)[C@H](CCCNC(=N)N)NC(=O)[C@H](CCC(N)=O)NC(=O)[C@H](CC(C)C)NC(=O)[C@H](Cc1ccccc1)NC(=O)[C@H](CC(=O)O)NC(=O)[C@H](C)NC(=O)[C@H](CC(C)C)NC(=O)[C@H](CCCNC(=N)N)NC(=O)[C@H](CCC(N)=O)NC(=O)[C@@H](NC(=O)[C@H](C)NC(=O)[C@@H]1CSSC[C@H](NC(=O)[C@H](CCCNC(=N)N)NC(=O)CC[C@H](NC(=O)CCCCCCCCCCCCCCCCCCC(=O)O)C(=O)O)C(=O)N[C@@H](CC(N)=O)C(=O)N[C@@H]([C@@H](C)O)C(=O)N[C@@H](C)C(=O)N[C@@H]([C@@H](C)O)C(=O)N1)[C@@H](C)O

- hAMYR3 EC50 (nM); cAMP induction: 0.14 nM
B4: [19CD]-isoGlu-R-C( )-GTAT-C( )-ATERLAHFLTRSSF-Gly(Me)-A-Ile(Me)-LSSTEVGSSTP-NH2 (Compd. 46) (peptide)
peptide: {C20 diacid}-[γGlu]RCGTATCATERLAHFLTRSSF[Sar]A[NMeI]LSSTEVGSSTP-NH2
modifications: disulfide 3-8
SMILES: CC[C@H](C)[C@@H](C(=O)N[C@@H](CC(C)C)C(=O)N[C@@H](CO)C(=O)N[C@@H](CO)C(=O)N[C@H](C(=O)N[C@@H](CCC(=O)O)C(=O)N[C@H](C(=O)NCC(=O)N[C@@H](CO)C(=O)N[C@@H](CO)C(=O)N[C@H](C(=O)N1CCC[C@H]1C(N)=O)[C@@H](C)O)C(C)C)[C@@H](C)O)N(C)C(=O)[C@H](C)NC(=O)CN(C)C(=O)[C@H](Cc1ccccc1)NC(=O)[C@H](CO)NC(=O)[C@H](CO)NC(=O)[C@H](CCCNC(=N)N)NC(=O)[C@@H](NC(=O)[C@H](CC(C)C)NC(=O)[C@H](Cc1ccccc1)NC(=O)[C@H](Cc1c[nH]cn1)NC(=O)[C@H](C)NC(=O)[C@H](CC(C)C)NC(=O)[C@H](CCCNC(=N)N)NC(=O)[C@H](CCC(=O)O)NC(=O)[C@@H](NC(=O)[C@H](C)NC(=O)[C@@H]1CSSC[C@H](NC(=O)[C@H](CCCNC(=N)N)NC(=O)CC[C@H](NC(=O)CCCCCCCCCCCCCCCCCCC(=O)O)C(=O)O)C(=O)NCC(=O)N[C@@H]([C@@H](C)O)C(=O)N[C@@H](C)C(=O)N[C@@H]([C@@H](C)O)C(=O)N1)[C@@H](C)O)[C@@H](C)O
